Values quoted from earlier work, collected in patent US6063755A, “Intestinal trefoil proteins” (The General Hospital Corporation, priority 1995, dated 2000).

Key:
[1] = laboratory animal; parenteral as well as oral administration
[2] = laboratory animal; parenteral as well as oral administration; remark: listed apart in the source

B1: PSP: porcine pancreatic peptide, pancreatic spasmolytic peptide; thought to include two trefoils (protein)
chain: EKPAACRCSRQDPKNRVNCGFPGITSDQCFTSGCCFDSQVPGVPWCFKPLPAQESEECVMEV
- gastric acid secretion [1]: inhibit
- gastrointestinal motility [2]: inhibit
